Tests used:
Giα2 = biological target: T1, Giα2 (Homo sapiens, UniProt P04899); test: GTPγS binding assay, Giα2; type: biochemical; details: AGS proteins
T1 construct: made in house; host or cells: Sf9 insect cells
Experimental: (§1) A and B, the carboxyl region of AGS3 (Pro^463-Ser^650) containing all four GPR repeats was generated as a His-tagged (A) or GST fusion (B) protein for protein interaction assays as described under Examples. All interactions were done in the presence of 10 μM GDP, and the input lanes represent one-tenth of the G-protein used in each interaction assay. A, Giα1 (75 nM) was incubated with 300 nM His-tagged AGS3-GPR in the absence and presence of increasing amounts of the GPR peptide, after which bound Giα was isolated on a nickel affinity matrix, and samples were processed for immunoblotting with Giα antisera. The blot in the upper panel of A was stripped and reprobed with AGS3 antisera to provide internal controls for protein loading. B, Giα2 (75 nM) was incubated with 300 nM AGS3-GPR or GST in the presence and absence of 100 μM GPR consensus peptide, GPR peptide Q15A, or GPR peptide R23F. The immunoblots presented in A and B are representative of three experiments. C and D, GTPγ^35S binding to G-proteins (100 nM) was measured in the absence and presence of peptides as described in the Examples. Data are expressed as the percent of specific binding (˜5 pmol) observed in the absence of peptide and represent the means±S.E. derived from three experiments. The concentration of peptides in D is 10 μM.
GTPγS Binding Assays—GTPγS binding assays were generally conducted as described (39). G-proteins (100 nM) were preincubated for 20 min at 24° C. in the presence and absence of GPR peptides. Binding assays (duplicate determinations) were initiated by addition of 0.5 μM GTPγS (4.0×10^4 dpm/pmol), and incubations (total volume=50 μl) were continued for 30 min at 24° C. Both preincubations and GTPγS binding assays were conducted in binding buffer containing 2 mM MgCl2. Reactions were terminated by rapid filtration through nitrocellulose filters with 4×4-ml washes of stop buffer (50 mM Tris-HCl, 5 mM MgCl2, 1 mM EDTA, pH 7.4, at 4° C.). Radioactivity bound to the filters was determined by liquid scintillation counting. Nonspecific binding was defined by 100 μM […].

brain G-protein = test: GTPγS binding assay, brain G-protein; type: biochemical, bovine; details: AGS proteins
Experimental: as §1, with “The immunoblots presented in A and B are representative of three experiments.” left out, “The concentration of peptides in D is 10 μM.” left out
GTPγS Binding Assays—GTPγS binding assays were generally conducted as described (39). […] Radioactivity bound to the filters was determined by liquid scintillation counting. […]

[1] = system: pheromone response pathway; test: β-galactosidase reporter assays in yeast strains expressing different Gα subunits; type: cell-based, Saccharomyces cerevisiae; details: Gpa1, Gsα, Giα2, Giα3, Gα16 backgrounds
Source text: (A) Bioactivity of cDNA #37 and 53 in yeast strains expressing different Gα subunits. The Gpa1, Giα2Gpa1(1-41), Giα3Gpa1(1-41) and Gα16Gpa1(1-41) yeast strains expressed similar amounts of G-protein as determined by immunoblotting with Gpa1-specific antisera. Each series of experiments include data obtained in the absence of Gα to indicate the signal obtained when the action of Gβγ is not limited by reformation of heterotrimer. Data are presented as the mean±S.E.M of three experiments with duplicate determinations. (B) Interaction of AGS2 and AGS3 with G-proteins. AGS2 and the bioactive AGS3 peptide (74 amino acids) beginning at the first in frame methionine were generated as GST-fusion proteins in bacteria and purified using a glutathione affinity matrix. AGS2 and AGS3 GST fusion proteins were incubated with G-protein subunits (Gα=60-80 nM, Gβγ=40 nM, fusion protein=˜300 nM, total volume=250 ul) for 12 hrs at 4° C. GDP=10 uM. […] Giα2 was generated in Sf9 cells as an amino terminal his6-tagged protein and was detected on membrane transfers using anti-Xpress antisera (Invitrogen). Bovine brain Gβγ was detected on membrane transfers with Gβ antisera. […]
Generation and screening of cDNA libraries. […] The cDNAs conferring such a response were considered positive and were further evaluated by epistasis experiments in different yeast strains, nucleotide sequencing and RNA blot analysis. […]

T1 sequence (P04899 whole entry): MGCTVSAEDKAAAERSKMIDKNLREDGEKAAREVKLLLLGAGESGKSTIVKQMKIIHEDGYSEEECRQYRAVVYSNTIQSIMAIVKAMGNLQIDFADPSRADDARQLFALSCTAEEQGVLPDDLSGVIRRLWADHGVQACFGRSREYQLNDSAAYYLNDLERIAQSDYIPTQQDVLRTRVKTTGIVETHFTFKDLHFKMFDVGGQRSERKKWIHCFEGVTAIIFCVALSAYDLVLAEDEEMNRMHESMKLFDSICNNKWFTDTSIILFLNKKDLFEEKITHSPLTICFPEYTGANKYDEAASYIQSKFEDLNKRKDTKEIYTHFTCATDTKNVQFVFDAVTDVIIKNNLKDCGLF

Row | Molecule | effect on GTPγ35S binding to Giα2 (Giα2) | effect on GTPγ35S binding to heterotrimeric brain G-protein (brain G-protein) | activity in yeast strains expressing different Gα subunits [1]
1 | AGS2: Activator of G-protein Signalling 2, protein identical to mouse Tctex1, isolated from NG108-15 cDNA library | did not alter | did not alter | active in each of the genetic backgrounds except Gpa1
2 | AGS3: Activator of G-protein Signalling 3; bioactive 74 amino acid fragment isolated in yeast screen, tested as GST fusion (protein, left off: a dimerising Fc or GST) MLIKYQSSRIDDQRCPPPDVLPRGPTMPDEDFFSLIQRVQAKRMDEQRVDLAGSPDQEASGLPDPRQQCPPGAS | did not alter | did not alter | only active in the Giα2 and Giα3 genetic backgrounds

Reference: US20030054411A1, “GPR motifs and uses thereof” (priority 2001, published 2003)
